Measured values published in the nanobody polyreactivity screen of Harvey et al. (2022).

Test: yeast display, Sf9 membrane polyspecificity reagent, FACS + sequencing; frameworks hold sequencing errors
In short: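 In a synthetic yeast display library (Saccharomyces cerevisiae BJ5465), nanobody expression was induced with galactose for 36–48 hours. FACS gates were set low and high (top ~1%) using anti-HA fluorescence for expression and streptavidin fluorescence for binding of the Sf9 membrane reagent. Each polyreactivity label is drawn from the gate of origin.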

Sequence | polyreactivity (PSR sort gate)
QVKLLESGGGLLQAGGSLRLSCAASGLTFYPYAMAWYRQAPGKERELVATITWSGTTTYYADSVKGRFTISRDNAKNTVYVQMNSLKPEDTAVYYCAADLWEVVTPYVTIDDDYWGQGTQVTVSS | high polyreactivity
QVQLVESGGGLVQAGGSLRLSCAASGIIFRNYAMGWYRQAPGKERELVATIRYRGGRTYADSVKGRFTISRDNAKNTVYLQMNSLKPEDTAVYYCNTYARYAYLTGRMEYWGQGTQVTVSS | high polyreactivity
QVQLVESGGGLVQAGGSLRLSCADSGITFYEFGMGWYRQAPGKERELVAAITTDGRTNYADSVKGRFTISRDNATNTVYLQMNILKPEDTAVYYCAVVHYFWGFYSVDYWGQGTQETVSS | high polyreactivity
QVQLVESGGGLVQAGGSLRLSCAASGSTFIVYGMGWYRQAPGKEREFVAAITTRSGSTYYADSVKGRFTISRDNAKNTVYLQMNSLKPEDTAVYYCAAVPGTPRHDYWGQGTQVTVSS | high polyreactivity
QVQLVESGGGLVQAGGSLRLSCAASGSNFNRYAMGWYRQAPGKERELVAAISRSGGRTYYADSVKGRFTISRDNAKNTVYLQMNSLKPEDTAVYYCAAGGRWFYIDDDWGQGTQVTVSS | high polyreactivity
QVQLVESGGGLVQAGGSLRLSCAASAFTFRYNAMGWYRQAPGKERELVATIDWSGGRTYYADSVKGRFTISRDNAKNTVYLQMNSLKPEDTAVYYCNAAALFRYYVRWKSAYDYWGQGTQVTVSS | high polyreactivity
QVQLVESGGGLVQAGGSLRLSSAASGSIFQDYAMGWYRQEPGKERELVAGINWRGDDTYADSVKGRFTISRDNAKNTVYLQMNSLKPEDTAVYYCNAEDWGYGYDYWGQGTQVTVSS | low polyreactivity
QVQLVESGGGLVQAGGSLRLSCAASGSIFRSYAMGWYRQAPGKERELVASITWRGGRTYYADSVKGRFTISRDNAKNTVYLQMNSLKPEDSAVYYCNVDVPGVRFEYWGQGTQVTVSS | low polyreactivity
QVQLVESGGGLVQAGGSLRLSCAASGSTFGGYAMGRYRQAPGKERELVAAISNGDRTNYADSVKGRFTISRDNAKNTVYLQKNSLKPEETAVYYCATRTLFRYPNYGNNLWGYDYWGQGTQVTVSS | low polyreactivity
QVHLVESGGGLVQAGGSLRLSCAASGLTFQYYAMGWYRQAPGKQRELVAAISSRGGRTYYADSVKGRFTISRDNAKNTVYLQMNSLKPEDTAVYYCAAEWWAPDRVTRGRIYGYWGQGTQVTVSS | high polyreactivity
QVQLVESGGGLVQAGGSLRLSCAASGSIFIYNAMGWYRQGPGKERELVAAISSSGGSTYYADSVKGRFTISRDNAKNTVYLQMNSLNPEDTAVYYCAARTYYVRGLGGRPGMDYWGPGTQVTVSS | low polyreactivity
QVQLVESGGGLVQAGGSLRLSCAASGSIFLAYAMGCYRQATAKEREFVAANSFSDGSTYYADSVKGRFTISRDNAKNTVYLQMNSLKPEDTAVYYCNKGASPDDYDYWGQGTQVTESS | low polyreactivity
QVQLVESGGGLVQAGGSLRLSCAAYGITFRVNPMGWYRQAPGKERELVAAISRGGGSTSYADSVMGRFTISRDNAKNTFYLQMNSLKPEDTAVYFCAREPLAYYVARYDYWGQGTQVTVSS | high polyreactivity
QVQLVESGGGLVQAGGSLRLSCAASGSTITSNAMGWYRQAPGKERELVAAINTSGGSTYYADSVKGRFTISRDNAKNTVYLQMNSLKPEDTAVYYCNADYGGDEYRGLEFDYWGQGTQVTVSS | low polyreactivity
QVQLVESGGGLVQAGGSLRLSCAASGSTFIGYTMGWYRQAPGKERELVAAISTSGARTYYADSVKGRFTISRDNAKNTVYLQMNSLKPEDTAVYYCAARAIYKSKYDYWGQGTQVTVSS | high polyreactivity
QVQLVESGGGLVQAGGSLRLSCAASGRTFIINTMGWYRQAPGKERELVAAISKNGATTNYADSVKGRFTISSDNAKNSVYLQMNSLKPEDTAVYYCNARYSGYLRLDYWGQGTQVTVSS | low polyreactivity
QVQLVESCGGLVQAGGSLRLSCAASGFTFYLYAMGWYRQAPGQERELVAAISSRGGTTYYADSVKGRFTISRDNAKNTVYLQMNSLKPEDTAVYYCNVARFYHIYDYWGQGTQVTVSS | high polyreactivity
QVQLVESGGGLVQAGGSLRLSCAASGYTFNKNTMGWYRQAPGKERELVAAISSSGGRTYYADSVKGRFTISRDNAKNTVYLQMNSLKPEDTAVYYCAARGYFKIHEYDYWGQGTQVTVSS | high polyreactivity
QVQLVESGVGFVQAGGSLRLSCAASGRIFGYYMGWYIQAPGKERELVAGISKRGTRTRYADSVKGRFTISRDNAKNTVFLQMNSLKPEDTAVYYCNADYYVSNMDYWGQGTQVTVSS | high polyreactivity
QVQLVESGGGLVQAGGSLRLSCAASGSTFERYAMGWYRQAPGKEREFVATINWGGGSTYYADSVKGRFTISRDNAKNTVYLQMNSLKPEDTAVYYCNAYVLYQSWRFSYDCWGQGTQVTVSS | low polyreactivity
QVQLVESGGGLVQAGGSLRLSCAASGSTFSSNGMGWYRPAPGKERELVAAITSGGSTNYADSVKGRFTISRDNAKNTVYLQMNSLKPEDTAVYYCNAERTAYGGGDYWGQGTQVTVSS | low polyreactivity
